Reference: article PMC6822712

What was measured:
[1] = target: TrkA (human) (human) (UniProt P04629)
[2] = target: TrkB (human) (human) (UniProt Q16620)
[3] = target: TrkB (rat) (rat) (UniProt Q63604)
[4] = target: TrkC (human) (human) (UniProt Q16288)
[5] = target: TrkC (rat) (rat) (UniProt Q03351)
Sequence of UniProt Q03351 (Q03351 32-864): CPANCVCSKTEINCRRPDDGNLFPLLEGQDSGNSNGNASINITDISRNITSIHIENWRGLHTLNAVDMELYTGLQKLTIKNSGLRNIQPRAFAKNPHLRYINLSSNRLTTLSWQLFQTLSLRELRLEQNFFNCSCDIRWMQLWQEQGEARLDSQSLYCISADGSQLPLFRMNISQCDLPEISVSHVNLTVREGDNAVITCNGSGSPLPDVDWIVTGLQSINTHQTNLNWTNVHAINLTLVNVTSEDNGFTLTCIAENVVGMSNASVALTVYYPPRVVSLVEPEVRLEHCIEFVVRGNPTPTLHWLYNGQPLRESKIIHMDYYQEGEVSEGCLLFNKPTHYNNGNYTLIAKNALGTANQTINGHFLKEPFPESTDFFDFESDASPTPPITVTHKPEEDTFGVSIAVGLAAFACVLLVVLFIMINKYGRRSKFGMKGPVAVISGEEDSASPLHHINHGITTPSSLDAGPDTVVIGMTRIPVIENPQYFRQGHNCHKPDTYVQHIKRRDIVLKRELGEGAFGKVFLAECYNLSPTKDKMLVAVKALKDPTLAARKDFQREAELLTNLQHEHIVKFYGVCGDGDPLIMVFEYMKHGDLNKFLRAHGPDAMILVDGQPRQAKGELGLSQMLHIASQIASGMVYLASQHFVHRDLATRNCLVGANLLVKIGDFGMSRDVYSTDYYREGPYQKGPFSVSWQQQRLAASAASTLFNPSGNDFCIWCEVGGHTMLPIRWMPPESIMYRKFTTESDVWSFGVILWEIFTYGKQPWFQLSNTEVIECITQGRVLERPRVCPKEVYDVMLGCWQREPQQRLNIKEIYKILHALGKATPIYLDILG

Sequence of UniProt Q16620 (Q16620 32-822): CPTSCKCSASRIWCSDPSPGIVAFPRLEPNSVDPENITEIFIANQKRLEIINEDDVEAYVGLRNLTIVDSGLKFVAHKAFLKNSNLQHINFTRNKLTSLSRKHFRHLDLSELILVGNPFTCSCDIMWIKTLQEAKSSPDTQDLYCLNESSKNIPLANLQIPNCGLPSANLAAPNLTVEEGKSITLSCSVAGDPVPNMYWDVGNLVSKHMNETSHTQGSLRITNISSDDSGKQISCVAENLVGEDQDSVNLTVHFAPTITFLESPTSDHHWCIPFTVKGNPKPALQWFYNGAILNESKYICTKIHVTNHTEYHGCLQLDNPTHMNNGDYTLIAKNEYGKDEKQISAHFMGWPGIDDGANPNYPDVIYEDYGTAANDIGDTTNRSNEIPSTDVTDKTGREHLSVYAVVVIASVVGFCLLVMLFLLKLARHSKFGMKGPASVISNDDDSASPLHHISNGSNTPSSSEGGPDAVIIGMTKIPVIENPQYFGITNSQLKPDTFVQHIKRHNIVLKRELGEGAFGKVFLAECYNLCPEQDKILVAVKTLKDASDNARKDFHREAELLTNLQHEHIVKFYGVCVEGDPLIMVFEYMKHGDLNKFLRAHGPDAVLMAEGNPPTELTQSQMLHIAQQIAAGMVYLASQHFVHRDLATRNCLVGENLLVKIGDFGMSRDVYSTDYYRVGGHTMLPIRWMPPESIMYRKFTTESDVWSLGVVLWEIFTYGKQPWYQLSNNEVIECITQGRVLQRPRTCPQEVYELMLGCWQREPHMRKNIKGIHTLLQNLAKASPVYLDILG
Sequence of UniProt Q63604 (Q63604 32-821): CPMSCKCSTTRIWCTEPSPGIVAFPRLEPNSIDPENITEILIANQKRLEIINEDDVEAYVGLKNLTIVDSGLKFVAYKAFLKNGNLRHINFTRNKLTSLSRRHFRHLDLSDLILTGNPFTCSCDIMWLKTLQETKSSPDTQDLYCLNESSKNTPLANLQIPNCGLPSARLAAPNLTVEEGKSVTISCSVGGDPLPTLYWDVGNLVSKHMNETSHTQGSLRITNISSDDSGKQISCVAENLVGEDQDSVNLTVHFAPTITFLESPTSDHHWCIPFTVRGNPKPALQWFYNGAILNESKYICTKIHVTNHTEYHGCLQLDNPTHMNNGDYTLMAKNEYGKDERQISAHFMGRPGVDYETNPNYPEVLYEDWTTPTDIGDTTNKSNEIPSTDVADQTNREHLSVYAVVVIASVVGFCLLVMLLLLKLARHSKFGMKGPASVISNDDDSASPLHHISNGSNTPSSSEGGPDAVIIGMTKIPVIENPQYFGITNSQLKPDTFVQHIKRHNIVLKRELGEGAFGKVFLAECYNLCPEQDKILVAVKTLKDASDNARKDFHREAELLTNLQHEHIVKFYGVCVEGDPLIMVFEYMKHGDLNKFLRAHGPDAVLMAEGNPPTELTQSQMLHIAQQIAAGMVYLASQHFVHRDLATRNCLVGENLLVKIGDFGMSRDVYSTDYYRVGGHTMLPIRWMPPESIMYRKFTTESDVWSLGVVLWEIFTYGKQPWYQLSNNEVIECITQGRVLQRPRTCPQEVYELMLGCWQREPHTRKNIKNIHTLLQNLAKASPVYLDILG
Sequence of UniProt Q16288 (Q16288 32-839): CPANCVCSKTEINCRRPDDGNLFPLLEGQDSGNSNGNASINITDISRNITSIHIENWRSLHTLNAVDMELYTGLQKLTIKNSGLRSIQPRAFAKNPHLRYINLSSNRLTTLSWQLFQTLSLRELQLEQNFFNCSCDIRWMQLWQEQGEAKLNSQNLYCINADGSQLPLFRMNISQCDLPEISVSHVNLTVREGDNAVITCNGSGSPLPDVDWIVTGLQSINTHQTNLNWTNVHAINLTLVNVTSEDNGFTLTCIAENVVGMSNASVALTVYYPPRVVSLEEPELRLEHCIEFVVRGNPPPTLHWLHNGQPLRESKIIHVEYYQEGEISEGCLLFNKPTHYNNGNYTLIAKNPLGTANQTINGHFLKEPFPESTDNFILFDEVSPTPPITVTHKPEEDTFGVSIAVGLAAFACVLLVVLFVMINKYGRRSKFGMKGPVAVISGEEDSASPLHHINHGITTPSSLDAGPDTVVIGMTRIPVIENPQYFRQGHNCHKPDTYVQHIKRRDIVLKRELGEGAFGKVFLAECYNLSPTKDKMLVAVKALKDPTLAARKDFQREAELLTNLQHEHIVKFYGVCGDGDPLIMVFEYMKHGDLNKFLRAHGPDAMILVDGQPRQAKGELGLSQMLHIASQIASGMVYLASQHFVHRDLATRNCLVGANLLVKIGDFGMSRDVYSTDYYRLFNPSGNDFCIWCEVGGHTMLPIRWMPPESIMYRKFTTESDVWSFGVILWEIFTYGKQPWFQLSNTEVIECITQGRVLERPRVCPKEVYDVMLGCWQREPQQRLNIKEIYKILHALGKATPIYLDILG
Sequence of UniProt P04629 (P04629 33-796): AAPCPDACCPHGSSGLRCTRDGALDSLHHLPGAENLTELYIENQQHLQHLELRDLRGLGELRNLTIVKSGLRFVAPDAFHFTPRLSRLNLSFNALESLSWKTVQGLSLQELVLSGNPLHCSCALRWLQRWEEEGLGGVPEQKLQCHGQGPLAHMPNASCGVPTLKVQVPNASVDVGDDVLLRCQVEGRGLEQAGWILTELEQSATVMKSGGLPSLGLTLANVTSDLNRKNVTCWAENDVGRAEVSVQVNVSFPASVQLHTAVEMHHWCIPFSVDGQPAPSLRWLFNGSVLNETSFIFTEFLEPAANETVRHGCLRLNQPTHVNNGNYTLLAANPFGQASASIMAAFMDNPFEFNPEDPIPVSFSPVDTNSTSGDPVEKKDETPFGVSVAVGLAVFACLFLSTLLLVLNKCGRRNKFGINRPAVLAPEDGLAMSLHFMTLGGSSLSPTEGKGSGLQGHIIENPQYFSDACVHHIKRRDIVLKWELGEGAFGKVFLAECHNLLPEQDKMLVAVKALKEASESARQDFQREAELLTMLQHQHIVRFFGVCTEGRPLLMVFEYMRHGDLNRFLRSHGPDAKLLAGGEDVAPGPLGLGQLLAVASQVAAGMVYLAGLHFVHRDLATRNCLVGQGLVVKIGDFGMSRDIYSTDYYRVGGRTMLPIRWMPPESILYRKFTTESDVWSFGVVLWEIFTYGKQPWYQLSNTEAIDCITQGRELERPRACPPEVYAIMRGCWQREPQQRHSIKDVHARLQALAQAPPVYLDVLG

**Q.** How did the EC50 of ERK phosphorylation (phospho-ERK AlphaLISA), NIH3T3 cells expressing human TrkA; no response [1] turn out when BDNF (ligand) was run?
**A.** Its EC50 of ERK phosphorylation (phospho-ERK AlphaLISA), NIH3T3 cells expressing human TrkA; no response is greater than 100 nM.

**Q.** What about the EC50 of ERK phosphorylation (phospho-ERK AlphaLISA), HEK293 cells stably expressing human TrkB [2] of the same molecule?
**A.** The EC50 of ERK phosphorylation (phospho-ERK AlphaLISA), HEK293 cells stably expressing human TrkB was 0.68 nM.

**Q.** And the Max (%) of ERK phosphorylation (phospho-ERK AlphaLISA), relative to 10nM BDNF, HEK293 cells stably expressing human TrkB [2]?
**A.** The Max (%) of ERK phosphorylation (phospho-ERK AlphaLISA), relative to 10nM BDNF, HEK293 cells stably expressing human TrkB was 114%.

**Q.** And the EC50 of ERK phosphorylation (phospho-ERK AlphaLISA), HEK293 cells stably expressing rat TrkB [3]?
**A.** The EC50 of ERK phosphorylation (phospho-ERK AlphaLISA), HEK293 cells stably expressing rat TrkB was 0.19 nM.

**Q.** And the Max (%) of ERK phosphorylation (phospho-ERK AlphaLISA), relative to 10nM BDNF, HEK293 cells stably expressing rat TrkB [3]?
**A.** Its Max (%) of ERK phosphorylation (phospho-ERK AlphaLISA), relative to 10nM BDNF, HEK293 cells stably expressing rat TrkB is 104%.

**Q.** And the EC50 of ERK phosphorylation (phospho-ERK AlphaLISA), NIH3T3 cells stably expressing human TrkC [4]?
**A.** The EC50 of ERK phosphorylation (phospho-ERK AlphaLISA), NIH3T3 cells stably expressing human TrkC was 26.8 nM.

**Q.** What about the Max (%) of ERK phosphorylation (phospho-ERK AlphaLISA), relative to 10nM NT-3, NIH3T3 cells stably expressing human TrkC [4] of the same molecule?
**A.** Its Max (%) of ERK phosphorylation (phospho-ERK AlphaLISA), relative to 10nM NT-3, NIH3T3 cells stably expressing human TrkC is 104%.

**Q.** And the EC50 of ERK phosphorylation (phospho-ERK AlphaLISA), NIH3T3 cells stably expressing rat TrkC [5]?
**A.** The EC50 of ERK phosphorylation (phospho-ERK AlphaLISA), NIH3T3 cells stably expressing rat TrkC was 4.97 nM.

**Q.** What about the Max (%) of ERK phosphorylation (phospho-ERK AlphaLISA), relative to 10nM NT-3, NIH3T3 cells stably expressing rat TrkC [5] of the same molecule?
**A.** Its Max (%) of ERK phosphorylation (phospho-ERK AlphaLISA), relative to 10nM NT-3, NIH3T3 cells stably expressing rat TrkC is 76.2%.

B1: NT-3 (ligand)
chain: YAEHKSHRGEYSVCDSESLWVTDKSSAIDIRGHQVTVLGEIKTGNSPVKQYFYETRCKEARPVKNGCRGIDDKHWNSQCKTSQTYVRALTSENNKLVGWRWIRIDTSCVCALSRKIGRT
**Q.** Which results are given for B1?
**A.** EC50 of ERK phosphorylation (phospho-ERK AlphaLISA), NIH3T3 cells expressing human TrkA [1]: 4.35 nM; Max (%) of ERK phosphorylation (phospho-ERK AlphaLISA), NIH3T3 cells expressing human TrkA [1]: 73.6%; EC50 of ERK phosphorylation (phospho-ERK AlphaLISA), HEK293 cells stably expressing human TrkB [2]: 2.05 nM; Max (%) of ERK phosphorylation (phospho-ERK AlphaLISA), relative to 10nM BDNF, HEK293 cells stably expressing human TrkB [2]: 58.5%; EC50 of ERK phosphorylation (phospho-ERK AlphaLISA), HEK293 cells stably expressing rat TrkB [3]: 10.7 nM; Max (%) of ERK phosphorylation (phospho-ERK AlphaLISA), relative to 10nM BDNF, HEK293 cells stably expressing rat TrkB [3]: 83%; EC50 of ERK phosphorylation (phospho-ERK AlphaLISA), NIH3T3 cells stably expressing human TrkC [4]: 0.4 nM; Max (%) of ERK phosphorylation (phospho-ERK AlphaLISA), relative to 10nM NT-3, NIH3T3 cells stably expressing human TrkC [4]: 106%; EC50 of ERK phosphorylation (phospho-ERK AlphaLISA), NIH3T3 cells stably expressing rat TrkC [5]: 0.21 nM; Max (%) of ERK phosphorylation (phospho-ERK AlphaLISA), relative to 10nM NT-3, NIH3T3 cells stably expressing rat TrkC [5]: 103%
